T1: APBA1_1, Q02410
T1 sequence (Q02410 651-752, limits assumed, looked up): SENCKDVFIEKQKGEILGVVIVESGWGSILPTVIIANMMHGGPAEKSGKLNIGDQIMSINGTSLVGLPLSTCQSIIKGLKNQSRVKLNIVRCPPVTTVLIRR

T2: APBA2_1, Q99767
T2 sequence (Q99767 563-664, limits assumed, looked up): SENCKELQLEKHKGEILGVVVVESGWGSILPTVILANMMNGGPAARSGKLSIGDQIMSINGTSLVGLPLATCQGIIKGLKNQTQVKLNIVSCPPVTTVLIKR

T3: ARHGAP21, Q5T5U3
T3 sequence (Q5T5U3 45-169, limits assumed, looked up): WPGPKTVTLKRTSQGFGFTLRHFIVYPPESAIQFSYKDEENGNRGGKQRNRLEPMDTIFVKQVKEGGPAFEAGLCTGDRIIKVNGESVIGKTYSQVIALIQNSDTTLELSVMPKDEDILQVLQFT

T4: DLG3_3, Q92796
T4 sequence (Q92796 374-475, limits assumed, looked up): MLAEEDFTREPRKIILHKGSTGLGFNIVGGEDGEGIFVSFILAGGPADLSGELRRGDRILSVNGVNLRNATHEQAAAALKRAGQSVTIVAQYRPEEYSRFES

T5: LRRC7, Q96NW7
T5 sequence (Q96NW7 1440-1537, limits assumed, looked up): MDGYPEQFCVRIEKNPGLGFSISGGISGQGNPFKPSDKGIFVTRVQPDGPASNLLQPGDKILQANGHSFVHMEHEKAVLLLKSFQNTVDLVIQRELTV

T6: MPP6, Q9NZW5
T6 sequence (Q9NZW5 125-219, limits assumed, looked up): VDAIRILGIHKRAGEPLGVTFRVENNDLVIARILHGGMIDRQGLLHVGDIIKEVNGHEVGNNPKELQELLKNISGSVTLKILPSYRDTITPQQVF

T7: PARD3B_1, Q8TEW8
T7 sequence (Q8TEW8 196-299, limits assumed, looked up): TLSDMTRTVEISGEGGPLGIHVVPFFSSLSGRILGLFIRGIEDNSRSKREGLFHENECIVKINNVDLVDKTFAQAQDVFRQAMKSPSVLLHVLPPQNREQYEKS

T8: PDZRN3_1, Q9UPQ7
T8 sequence (Q9UPQ7 244-349, limits assumed, looked up): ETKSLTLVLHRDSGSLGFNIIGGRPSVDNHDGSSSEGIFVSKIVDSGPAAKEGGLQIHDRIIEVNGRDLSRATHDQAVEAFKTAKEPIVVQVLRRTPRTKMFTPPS

T9: SIPA1L2, Q9P2F8
T9 sequence (Q9P2F8 945-1036, limits assumed, looked up): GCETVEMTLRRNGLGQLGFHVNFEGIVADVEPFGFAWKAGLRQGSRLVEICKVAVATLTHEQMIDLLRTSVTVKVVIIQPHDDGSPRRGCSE

T10: SNTB1, Q13884
T10 sequence (Q13884 107-205, limits assumed, looked up): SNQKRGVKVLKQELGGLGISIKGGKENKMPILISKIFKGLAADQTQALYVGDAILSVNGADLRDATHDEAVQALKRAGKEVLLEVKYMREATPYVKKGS

T11: SNTG2, Q9NY99
T11 sequence (Q9NY99 68-166, limits assumed, looked up): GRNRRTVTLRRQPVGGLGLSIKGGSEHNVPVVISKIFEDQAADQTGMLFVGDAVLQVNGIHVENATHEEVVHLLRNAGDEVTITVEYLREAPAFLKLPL


These binders were tested against T1, APBA1_1, Q02410 (assay: holdup assay). Details: plain residues with an end cap or a label only (N-terminal biotin on a linker: ttds).
Parameters: key: below the threshold = too weak to quantify, mostly under pKd 3.1 to 4
In the case of SSRTRRETQL [HPV16-E6, P03126], the pKd is reported as “below the threshold”.
VLRLQSETSV [VANGL1, Q8TAA9] was tested, and the pKd was “below the threshold”.

Each binder was assayed against T2, APBA2_1, Q99767 (assay: holdup assay). Details: plain residues with an end cap or a label only (N-terminal biotin on a linker: ttds).
Parameters: key: below the threshold = too weak to quantify, mostly under pKd 3.1 to 4
For SSRTRRETQL [HPV16-E6, P03126], the pKd was “below the threshold”.
For VLRLQSETSV [VANGL1, Q8TAA9], the pKd was “below the threshold”.

These binders were tested against T3, ARHGAP21, Q5T5U3 (assay: holdup assay). Details: plain residues with an end cap or a label only (N-terminal biotin on a linker: ttds).
Parameters: key: below the threshold = too weak to quantify, mostly under pKd 3.1 to 4
SSRTRRETQL [HPV16-E6, P03126] was tested, and the pKd was “below the threshold”.
In the case of VLRLQSETSV [VANGL1, Q8TAA9], the pKd is reported as “below the threshold”.

Each binder was assayed against T4, DLG3_3, Q92796 (assay: holdup assay). Details: plain residues with an end cap or a label only (N-terminal biotin on a linker: ttds).
Parameters: key: below the threshold = too weak to quantify, mostly under pKd 3.1 to 4
In the case of SSRTRRETQL [HPV16-E6, P03126], the pKd is reported as 4.88.
VLRLQSETSV [VANGL1, Q8TAA9] was tested, and the pKd was 4.7.

These binders were tested against DLG4_1, P78352 (assay: holdup assay). Details: plain residues with an end cap or a label only (N-terminal biotin on a linker: ttds).
Chain of DLG4_1, P78352 (P78352 62-152): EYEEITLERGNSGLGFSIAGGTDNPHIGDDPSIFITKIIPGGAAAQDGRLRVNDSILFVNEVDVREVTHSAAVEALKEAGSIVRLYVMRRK
Parameters: key: below the threshold = too weak to quantify, mostly under pKd 3.1 to 4
Work on SSRTRRETQL [HPV16-E6, P03126] yielded a pKd of 4.73.
Work on VLRLQSETSV [VANGL1, Q8TAA9] yielded a pKd of 4.4.

What follows are binders tested against FRMPD4, Q14CM0 (assay: holdup assay). Details: plain residues with an end cap or a label only (N-terminal biotin on a linker: ttds).
Chain of FRMPD4, Q14CM0 (Q14CM0 67-160): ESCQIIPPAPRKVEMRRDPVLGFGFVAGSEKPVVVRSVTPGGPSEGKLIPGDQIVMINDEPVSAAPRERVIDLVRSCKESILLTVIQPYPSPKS
Parameters: key: below the threshold = too weak to quantify, mostly under pKd 3.1 to 4
For SSRTRRETQL [HPV16-E6, P03126], the pKd was 3.83.
In the case of VLRLQSETSV [VANGL1, Q8TAA9], the pKd is reported as “below the threshold”.

What follows are binders tested against GRID2IP_2, A4D2P6 (assay: holdup assay). Details: plain residues with an end cap or a label only (N-terminal biotin on a linker: ttds).
Chain of GRID2IP_2, A4D2P6 (A4D2P6 272-370): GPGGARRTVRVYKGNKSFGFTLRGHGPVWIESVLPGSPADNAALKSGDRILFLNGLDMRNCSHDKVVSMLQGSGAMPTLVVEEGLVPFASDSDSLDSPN
Parameters: key: below the threshold = too weak to quantify, mostly under pKd 3.1 to 4
With SSRTRRETQL [HPV16-E6, P03126] the pKd was 3.86.
For VLRLQSETSV [VANGL1, Q8TAA9], the pKd was “below the threshold”.

Each binder was assayed against GRIP2_3, Q9C0E4 (assay: holdup assay). Details: plain residues with an end cap or a label only (N-terminal biotin on a linker: ttds).
Chain of GRIP2_3, Q9C0E4 (Q9C0E4 238-339): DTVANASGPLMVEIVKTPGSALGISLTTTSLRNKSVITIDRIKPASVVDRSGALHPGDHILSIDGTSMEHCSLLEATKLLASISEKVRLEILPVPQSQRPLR
Parameters: key: below the threshold = too weak to quantify, mostly under pKd 3.1 to 4
SSRTRRETQL [HPV16-E6, P03126] was tested, and the pKd was “below the threshold”.
VLRLQSETSV [VANGL1, Q8TAA9] was tested, and the pKd was “below the threshold”.

What follows are binders tested against IL16_3, Q14005 (assay: holdup assay). Details: plain residues with an end cap or a label only (N-terminal biotin on a linker: ttds).
Chain of IL16_3, Q14005 (Q14005 1107-1207): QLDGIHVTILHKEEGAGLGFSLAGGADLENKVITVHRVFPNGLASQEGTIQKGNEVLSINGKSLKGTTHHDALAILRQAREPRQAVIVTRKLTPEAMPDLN
Parameters: key: below the threshold = too weak to quantify, mostly under pKd 3.1 to 4
SSRTRRETQL [HPV16-E6, P03126] was tested, and the pKd was “below the threshold”.
With VLRLQSETSV [VANGL1, Q8TAA9] the pKd was “below the threshold”.

Each binder was assayed against Inadl_10, Q8NI35 (assay: holdup assay). Details: plain residues with an end cap or a label only (N-terminal biotin on a linker: ttds).
Chain of Inadl_10, Q8NI35 (Q8NI35 1673-1763): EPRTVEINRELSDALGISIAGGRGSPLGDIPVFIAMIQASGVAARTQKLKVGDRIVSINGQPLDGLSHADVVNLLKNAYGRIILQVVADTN
Parameters: key: below the threshold = too weak to quantify, mostly under pKd 3.1 to 4
In the case of SSRTRRETQL [HPV16-E6, P03126], the pKd is reported as “below the threshold”.
With VLRLQSETSV [VANGL1, Q8TAA9] the pKd was “below the threshold”.

What follows are binders tested against Inadl_3, Q8NI35 (assay: holdup assay). Details: plain residues with an end cap or a label only (N-terminal biotin on a linker: ttds).
Chain of Inadl_3, Q8NI35 (Q8NI35 359-469): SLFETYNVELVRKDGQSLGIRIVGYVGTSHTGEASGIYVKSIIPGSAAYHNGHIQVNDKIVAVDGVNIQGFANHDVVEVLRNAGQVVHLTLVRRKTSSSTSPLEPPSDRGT
Parameters: key: below the threshold = too weak to quantify, mostly under pKd 3.1 to 4
SSRTRRETQL [HPV16-E6, P03126] was tested, and the pKd was “below the threshold”.
In the case of VLRLQSETSV [VANGL1, Q8TAA9], the pKd is reported as “below the threshold”.

These binders were tested against Inadl_6, Q8NI35 (assay: holdup assay). Details: plain residues with an end cap or a label only (N-terminal biotin on a linker: ttds).
Chain of Inadl_6, Q8NI35 (Q8NI35 1058-1167): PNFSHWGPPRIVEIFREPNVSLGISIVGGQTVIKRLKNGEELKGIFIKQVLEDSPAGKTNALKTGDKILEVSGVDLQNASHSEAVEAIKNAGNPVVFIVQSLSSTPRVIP
Parameters: key: below the threshold = too weak to quantify, mostly under pKd 3.1 to 4
SSRTRRETQL [HPV16-E6, P03126] showed a pKd of 3.49.
In the case of VLRLQSETSV [VANGL1, Q8TAA9], the pKd is reported as “below the threshold”.

The binders below were run against LIMK2, P53671 (assay: holdup assay). Details: plain residues with an end cap or a label only (N-terminal biotin on a linker: ttds).
Chain of LIMK2, P53671 (P53671 143-248): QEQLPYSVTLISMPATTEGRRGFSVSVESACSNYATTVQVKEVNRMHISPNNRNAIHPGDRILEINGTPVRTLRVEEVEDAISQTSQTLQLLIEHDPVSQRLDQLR
Parameters: key: below the threshold = too weak to quantify, mostly under pKd 3.1 to 4
In the case of SSRTRRETQL [HPV16-E6, P03126], the pKd is reported as “below the threshold”.
With VLRLQSETSV [VANGL1, Q8TAA9] the pKd was “below the threshold”.

What follows are binders tested against LNX1_3, Q8TBB1 (assay: holdup assay). Details: plain residues with an end cap or a label only (N-terminal biotin on a linker: ttds).
Chain of LNX1_3, Q8TBB1 (Q8TBB1 500-596): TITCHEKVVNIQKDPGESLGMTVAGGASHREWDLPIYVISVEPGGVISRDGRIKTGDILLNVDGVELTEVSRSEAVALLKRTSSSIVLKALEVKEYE
Parameters: key: below the threshold = too weak to quantify, mostly under pKd 3.1 to 4
For SSRTRRETQL [HPV16-E6, P03126], the pKd was 3.51.
For VLRLQSETSV [VANGL1, Q8TAA9], the pKd was “below the threshold”.

Each binder was assayed against T5, LRRC7, Q96NW7 (assay: holdup assay). Details: plain residues with an end cap or a label only (N-terminal biotin on a linker: ttds).
Parameters: key: below the threshold = too weak to quantify, mostly under pKd 3.1 to 4
Work on SSRTRRETQL [HPV16-E6, P03126] yielded a pKd of 3.9.
For VLRLQSETSV [VANGL1, Q8TAA9], the pKd was “below the threshold”.

The binders below were run against T6, MPP6, Q9NZW5 (assay: holdup assay). Details: plain residues with an end cap or a label only (N-terminal biotin on a linker: ttds).
Parameters: key: below the threshold = too weak to quantify, mostly under pKd 3.1 to 4
SSRTRRETQL [HPV16-E6, P03126] was tested, and the pKd was 3.58.
VLRLQSETSV [VANGL1, Q8TAA9] was tested, and the pKd was “below the threshold”.

What follows are binders tested against NHERF4_4, Q86UT5 (assay: holdup assay). Details: plain residues with an end cap or a label only (N-terminal biotin on a linker: ttds).
Chain of NHERF4_4, Q86UT5 (Q86UT5 464-550): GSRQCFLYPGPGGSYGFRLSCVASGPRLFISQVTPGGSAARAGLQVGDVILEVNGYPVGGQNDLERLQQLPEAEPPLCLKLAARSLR
Parameters: key: below the threshold = too weak to quantify, mostly under pKd 3.1 to 4
For SSRTRRETQL [HPV16-E6, P03126], the pKd was 3.61.
For VLRLQSETSV [VANGL1, Q8TAA9], the pKd was “below the threshold”.

These binders were tested against T7, PARD3B_1, Q8TEW8 (assay: holdup assay). Details: plain residues with an end cap or a label only (N-terminal biotin on a linker: ttds).
Parameters: key: below the threshold = too weak to quantify, mostly under pKd 3.1 to 4
In the case of SSRTRRETQL [HPV16-E6, P03126], the pKd is reported as “below the threshold”.
With VLRLQSETSV [VANGL1, Q8TAA9] the pKd was “below the threshold”.

What follows are binders tested against T8, PDZRN3_1, Q9UPQ7 (assay: holdup assay). Details: plain residues with an end cap or a label only (N-terminal biotin on a linker: ttds).
Parameters: key: below the threshold = too weak to quantify, mostly under pKd 3.1 to 4
SSRTRRETQL [HPV16-E6, P03126] showed a pKd of 5.66.
Binder VLRLQSETSV [VANGL1, Q8TAA9] has a pKd of 4.4.

What follows are binders tested against PDZRN4_1, Q6ZMN7 (assay: holdup assay). Details: plain residues with an end cap or a label only (N-terminal biotin on a linker: ttds).
Chain of PDZRN4_1, Q6ZMN7 (Q6ZMN7 213-318): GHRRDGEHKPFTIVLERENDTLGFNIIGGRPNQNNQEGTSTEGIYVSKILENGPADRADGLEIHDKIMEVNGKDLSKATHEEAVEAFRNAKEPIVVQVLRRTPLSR
Parameters: key: below the threshold = too weak to quantify, mostly under pKd 3.1 to 4
In the case of SSRTRRETQL [HPV16-E6, P03126], the pKd is reported as 5.25.
VLRLQSETSV [VANGL1, Q8TAA9] was tested, and the pKd was 4.46.

Each binder was assayed against PICK1, Q9NRD5 (assay: holdup assay). Details: plain residues with an end cap or a label only (N-terminal biotin on a linker: ttds).
Chain of PICK1, Q9NRD5 (Q9NRD5 17-115): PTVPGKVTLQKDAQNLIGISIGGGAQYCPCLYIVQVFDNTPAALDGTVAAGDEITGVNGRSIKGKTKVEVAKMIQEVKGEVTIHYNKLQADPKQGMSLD
Parameters: key: below the threshold = too weak to quantify, mostly under pKd 3.1 to 4
SSRTRRETQL [HPV16-E6, P03126] was tested, and the pKd was “below the threshold”.
With VLRLQSETSV [VANGL1, Q8TAA9] the pKd was “below the threshold”.

These binders were tested against T9, SIPA1L2, Q9P2F8 (assay: holdup assay). Details: plain residues with an end cap or a label only (N-terminal biotin on a linker: ttds).
Parameters: key: below the threshold = too weak to quantify, mostly under pKd 3.1 to 4
In the case of SSRTRRETQL [HPV16-E6, P03126], the pKd is reported as “below the threshold”.
VLRLQSETSV [VANGL1, Q8TAA9] was tested, and the pKd was “below the threshold”.

Each binder was assayed against T10, SNTB1, Q13884 (assay: holdup assay). Details: plain residues with an end cap or a label only (N-terminal biotin on a linker: ttds).
Parameters: key: below the threshold = too weak to quantify, mostly under pKd 3.1 to 4
For SSRTRRETQL [HPV16-E6, P03126], the pKd was 4.92.
VLRLQSETSV [VANGL1, Q8TAA9] gave a pKd of 4.57.

These binders were tested against T11, SNTG2, Q9NY99 (assay: holdup assay). Details: plain residues with an end cap or a label only (N-terminal biotin on a linker: ttds).
Parameters: key: below the threshold = too weak to quantify, mostly under pKd 3.1 to 4
SSRTRRETQL [HPV16-E6, P03126] showed a pKd of 4.45.
Binder VLRLQSETSV [VANGL1, Q8TAA9] has a pKd of 4.53.

The binders below were run against SNX27, Q96L92 (assay: holdup assay). Details: plain residues with an end cap or a label only (N-terminal biotin on a linker: ttds).
Parameters: key: below the threshold = too weak to quantify, mostly under pKd 3.1 to 4
Binder SSRTRRETQL [HPV16-E6, P03126] has a pKd of 4.91.
VLRLQSETSV [VANGL1, Q8TAA9] was tested, and the pKd was 5.7.

From paper PMC9482650, “Quantitative fragmentomics allow affinity mapping of interactomes” (Nature Communications, 2022)
